Experimental findings from article doi:10.1101/2023.09.27.559698 are described below.

The target of series [1] is 53BP1 GAR-Tudor (Homo sapiens, UniProt Q12888 1288-1659). Nature of the series: SPR.
In series [2] the target is 53BP1 GAR(3K)-Tudor (Homo sapiens, UniProt Q12888 1288-1659, R1396K;R1398K;R1401K). Nature of the series: SPR. Background: In SPR one partner is held on a chip, and binding of the other changes the refractive index at the surface.
53BP1 GAR(3K)-Tudor, sequence (Q12888 1288-1659 R1396K/R1398K/R1401K): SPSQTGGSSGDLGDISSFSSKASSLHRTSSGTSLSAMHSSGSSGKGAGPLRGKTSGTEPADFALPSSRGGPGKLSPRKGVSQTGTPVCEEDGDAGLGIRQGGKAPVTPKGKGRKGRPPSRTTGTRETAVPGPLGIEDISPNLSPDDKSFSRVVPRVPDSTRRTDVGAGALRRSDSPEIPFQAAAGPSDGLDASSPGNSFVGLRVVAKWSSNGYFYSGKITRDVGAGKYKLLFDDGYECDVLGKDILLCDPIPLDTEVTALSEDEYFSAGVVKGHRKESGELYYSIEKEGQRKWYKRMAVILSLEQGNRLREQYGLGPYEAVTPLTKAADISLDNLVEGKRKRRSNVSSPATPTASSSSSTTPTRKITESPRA

53BP1 GAR-Tudor, sequence (Q12888 1288-1659): as the sequence (Q12888 1288-1659 R1396K/R1398K/R1401K) above, with K109R, K111R, K114R counted along it

As to GCUGCGGUGUGGAAGGAGUGGUCGGGUUGCGCAGCG (structured_RNA) [SC1 RNA, biotinylated], the Kd in series [1] is about 8 nM. The binding result in series [2] is “no binding”.

What is called Kd is a measure of binding affinity in units of concentration. A higher Kd goes with a looser complex.
